Results on 17 sequences are retold here after a protein production outcome set (Wang et al. 2014).

A short description of this data set: label from the status in PepcDB records.
Take “MDSMKLYDAIIGTVEKHIAPIAAKVGNQPHVRAMRDGFIVAMPFIIVGSFILIFAFPPFAEDTTFTFGRLWLDFATTHFDTIMMPFNMSMGIMTIFVSLGVAYSLAKAYKMDGITSAVLSLMCFLLVAAPAQDGSLAMKHMGGTGIFTAVMCAFFAVELYRFMKKHNITIRMPEQVPPAIARSFEVLLPVLAVFVTLYPLSIFVQTQYDMLIPDAVMAMFKPLISASNTLPAIIGALLMCQLLWFAGIHGAAIVVGLLSPIFLTNISGNIDAFVAGQPVPNIFTQPFWDFYIFIGGSGATLALVLLMSFSRSVHLKSIGRMSAVPGFFQINEPVIFGSPIVMNPTLFIPFVFAPVINATIAYFAVHLGFVGMGVATTPWTTPAIIGASWGSGWTFSPVLLVVGLLILDLLIYFPFFKMFEKQMLEQELPTTKETKQAEQPAGEGVTA”: the protein production result was “failed”.

Regarding “MDSNTFVSTNIKKERNVDSVLSKGKPVSILLMGTDTGELGRNWVGRTDSMILVIINPKTKKTLLMSIPRDSMVSIPGYEYTFPQKINAAYEYPANGKGHPETSIKTVEKWLNVPIDFYGIVNMEALEQITNKAGGISVKSPLTFTFSEDTAHDYGNNLYTFTKGSTKYKYYKNGSTLTKTSNIMNGAAALAFTRMRYNDPLGDYGRTLRQRLVFEAIAKKATVLIPQIVNKKFLNSISKQGKTDLTFNDMVTLASNYRKALKNIKSDSVQGTDYEYSGISYQVVASKEKQRVTNKIRKFLGLKKAKSGPLYASKVTNGVVILEHHHHHH”, the protein production entry is on record as “failed”.

For “MDSRKALDGLAVTLMIILCLTWGLQQVALKATSAEIAPLMQIAIRSGISALLVGIMMAVRGERLSLAGGMWRPGLAVGFLFALEYLLVGEGLRHTTASHMVIFLYTAPVFAAIGLHLKLRSERLRPVQWFGIALAFGGIVVSFYGRGGHTASLSVASVIWGDVLGLAAGMAWGMTTVVIRTSRLAACSATQTLLFQLLGAFILLLPAAAVLDQTYFNPTRLGWACLIFQTLIVSFASFLVWFWLLRHYVASRLGVLSFMTPLFGVALGAWLLNEPLERGFLAGALLVLTGIILVSGHGWLRQLGNGAGAAVQEQAREPDLP”, the protein production entry is “failed”.

As for “MDSVVSDVSDLVEPDEELKAWQTDRTRAPIATKIVVAGGFGAGKTTLVTAVSEITPLQTEALMTQASEDTDDLTGTPDKLTTTVAMDFGRITLDDDLVLYLFGTPGQQRFWFMWDDLVRGAIGAVVLADTRRLSDCFPALDYFESCGLPYVVAVNHFDGSEKFEPEDVREALTVPAHIPVMIMDARRRISVIETLLALVGHALEVSPELEHHHHHH”, the protein production result is “not failed”.

For the sequence “MDTELMKLDVHVTAWSRTPSSSGFLNSVMISRDRDFEEFIINDRDGSVTSLGSYQNPSRGPDPLIFLDFRNFEPNYVYQLLLSQFHDHVLSEHIADQIGYTFGTCNSPTSTTDLDQESEEEE”, the protein production result is “failed”.

As for “MDTLEPTAVDTHVSAEQILRDVYKKGQKARGSTNIDILDLEELREYQRRKRTEYEGYLKRNRLDMGQWIRYAQFEIEQHDMRRARSIFERALLVDSSFIPLWIRYIDAELKVKCINHARNLMNRAISTLPRVDKLWYKYLIVEESLNNVEIVRSLYTKWCSLEPGVNAWNSFVDFEIRQKNWNGVREIYSKYVMAHPQMQTWLKWVRFENRHGNTEFTRSVYSLAIDTVANLQNLQIWSDMEVAKLVNSFAHWEAAQQEYERSSALYQIAIEKWPSNQLLKAGLLDFEKQFGDINSIEETISYKRKMEYETILSNNAYDYDTWWLYLDLISESFPKQIMQTFEKAIVDSRPKELSKNVQWKRYIYLWMRYICYVELELENSLLEEELFQRLIDDIIPHKHFTFSKIWLMYAKFLIRHDDVPKARKILGKAIGLCPKAKTFKGYIELEVKLKEFDRVRKIYEKFIEFQPSDLQIWSQYGELEENLGDWDRVRGIYTIALDENSDFLTKEAKIVLLQKYITFETESQEFEKARKLYRRYLELNQYSPQSWIEFAMYQTSTPTEQQLLDLAKLQSENVDEDIEFEITDENKLEARKVFEEAIVFFKEKDDKQGRLSILEALKDYEETYGTELDQETVKKRFPKVIKKVRLQNGVEEEFVDYIFPDDIDDDKPKPSKFLELAKKWKQEQAL”, the protein production result is “failed”.

Take “MDTLQFQKNPETAAKMSAYMKHQFVFAGIPAPERQALSKQLLKESHTWPKEKLCQEIEAYYQKTEREYQYVAIDLALQNVQRFSLEEVVAFKAYVPQKAWWDSVDAWRKFFGSWVALHLTELPTIFALFYGAENFWNRRVALNLQLMLKEKTNQDLLKKAIIYDRTTEEFFIQKAIGWSLRQYSKTNPQWVEELMKELVLSPLAQREGSKYLAKASE”: the protein production result is listed as “not failed”.

With “MDTMRSLRFISAEALVSHPQVARQSLDSVAHNLYPLLFKASYLLEQAEVTRAVLGRWPLEEFRLGALLGPGADHPQDLRDRTCRACLEALVRGLADHVLQDRSRRRLRVADLTGIRDVQVQRCPCGRALGRWGRTQLLARTCCELQAEPLAAGRPVEVLADLFVTEGNFEAVVQALRPAGPAPLRVHCPSFRADSLSPSQLLHVLRLAGPGALRKLEVVHNVRLHAGHVQQLLAQVGFPRLASLTLPTKAFDAPPTYASTPDGEDPLLASIARELSKMAQLTELSVAFSTLTGKIPTLLGPLQTPLRVLDLANCALNHTDMAFLADCAHAAHLEVLDLSGHNLVSLYPSTFFRLLSQASRTLRILTLEECGIVDSHVGMLILGLSPCHRLRQLKFLGNPLSARALRRLFTALCELPELRCIEFPVPKDCYPEGAAYPQDELAMSKFNQQKYDEIAEELRAVLLRADREDIQVSTPLFGSFDPDIQETSNELGAFLLQAFKTALENFSRALKQIE”, the protein production entry is recorded as “failed”.

Take “MDTPILIPTDMNRIPFFYLLQISDPLFPIGGFTQSYGLETYVQKGIVHDAETSKKYLESYLLNSFLYNDLLAVRLSWEYTQKGNLNKVLELSEVFSASKAPRELRAANEKLGRRFIKILEFVLGENEMFCEMYEKVGRGSVEVSYPVMYGFCTNLLNIGKKEALSAVTYSAASSIINNCAKLVPISQNEGQKILFNAHGIFRRLLERVEELDEEYLGSCCFGFDLRAMQHERLYTRLYIS”: the protein production entry is “failed”.

On to “MDTPLGSVLYITLGCAKNEVDTDRMRSLLTAAGYEEAFDPQDADIAIVNTCSFLASATSESIETTLELANEVQDGVRSCPIVMCGCVPSRYGDDLPDELPEVAAFVKADEEDGIVAVIDGVLGVEREIAAYIPQVKRTVEGAVAYVKISDGCNRFCSFCMIPYIRGRYHSRNSESIISEVRDLVAGGVREIVLIGQDTGIWGTDFADEDVADGSPRNLAQLLRAVAEAVRPHNVWVRVLYLQPEGMTDELIDTIRDTPEVLPYIDIPVQHCDARILKAMRRSGSRQELEDLFRDLRERIPGIVIRSTAMVGFPTETDDEFRDLIDFMDTVGFDYTSVFAYSREEGSLAAKMEGQVDEEVKLERAQEAMDLAESLGFAATAAHVGERAQVIVDGIEETEDGAELIGHAWFQAPDSDGAVHLDASEASVGDILTVEFTDSFCYELIGHVVE”, for which the protein production result is on record as “failed”.

Regarding “MDTSDLFASCRKGDVGRVRYLLEQRDVEVNVRDKWDSTPLYYACLCGHEELVLYLLANGARCEANTFDGERCLYGALSDPIRRALRDYKQVTASCRRRDYYDDFLQRLLEQGIHSDVVFVVHGKPFRVHRCVLGARSAYFANMLDTKWKGKSVVVLRHPLINPVAFGALLQYLYTGRLDIGVEHVSDCERLAKQCQLWDLLSDLEAKCEKVSEFVASKPGTCVKVLTIEPPPADPRLREDMALLADCALPPELRGDLWELPFPCPDGFNSCPDICFRVAGCSFLCHKAFFCGRSDYFRALLDDHFRESEEPATSGGPPAVTLHGISPDVFTHVLYYMYSDHTELSPEAAYDVLSVADMYLLPGLKRLCGRSLAQMLDEDTVVGVWRVAKLFRLARLEDQCTEYMAKVIEKLVEREDFVEAVKEEAAAVAARQETDSIPLVDDIRFHVASTVQTYSAIEEAQQRLRALEDLLVSIGLDC”, the protein production result is on record as “failed”.

As for “MDVAGDEAGGTAGARDRVADRAAGRAVALGAIALLVAGALEAWAVLGGLEPARFWDTPSYLHDAGHLARGELPPLGLRMPGYPAFVALVGGRGPDLGRVAGAQAALWVASVVLAYALVRRLTGSLAAALAAGLAALSFVDLLFMAVTIYSETLCLALVCGAALATVAAFGGRTRAAVAGAGLLWAAAALVRPIFLASAGVYLLAALLLAARRALARRDVALAWAAVAAVVLAMASLNLARAGRFEFSPGAGLSLLNHVGHPAVYRHLPPDQAPIREVYERLAAEQGREWIGWWRAVGPLAQVVAPELAEAAGRLEVTAAEPVAERVALRALAAVPGGWLRVWADAAEQLLGRFALQLGWSARPDGPPQWPPGAWQHRAARDAEAAWRVGMPWLSAAALLLPPLALWLRARRRRRGDDVPGPAGAGAALATLWAIAGVNAGLSPALEPWAGQMRYRFPIQHLLLGLAIGAAVLAARALRPARGLAGAGSPAPGAGAARRT”, the protein production result was “failed”.

Take “MDVFATGAGQVDPAKVLSPGLVYDATTEDYLKFIQGTGMDLGMEGLGTTQARDMNVPSFALGNLAGKIEVTRTLTALTPGTYRASVNVPGVNVKVTPSVLTFGAPGEKKTFKVQFENNNAALGKFAMGSLNWQGANKTVTSPIAVRPLEHHHHHH”: the protein production result is recorded as “failed”.

In the case of “MDVGMPFSGPVSFPLLVIEEELPFRIHNICSETGKFDVVLDSITNMPKYGLKIFAGVRIDMYSILGDESSGRIYTLRKGTLADFNARILAYYDKAQVINADGDTCIKMANEGYSALVGNEISIGKSFRNRMKELGLDLPSCAMASTRRIDEVIEAYEQGIDFIKNNHERAAEIISKKSGYYSEEVMKKIIGIYGHEVTKKRAELVGSRELYSRVVPELNDIEIIG”, the protein production result was “not failed”.

For “MDVLSPGQGNNTTSPPAPFETGGNTTGISDVTVSYQVITSLLLGTLIFCAVLGNACVVAAIALERSLQNVANYLIGSLAVTDLMVSVLVLPMAALYQVLNKWTLGQVTCDLFIALDVLCCTSSILHLCAIALDRYWAITDPIDYVNKRTPRRAAALISLTWLIGFLISIPPMLGWRTPEDRSDPDACTISKDHGYTIYSTFGAFYIPLLLMLVLYGRIFRAARFRIRKTVKKVEKTGADTRHGASPAPQPKKSVNGESGSRNWRLGVESKAGGALCANGAVRQGDDGAALEVIEVHRVGNSKEHLPLPSEAGPTPCAPASFERKNERNAEAKRKMALARERKTVKTLGIIMGTFILCWLPFFIVALVLPFCESSCHMPTLLGAIINWLGYSNSLLNPVIYAYFNKDFQNAFKKIIKCKFCRQ”, the protein production entry is “failed”.

Turning to “MDVPSPCNVLMLYPLFTAESFWSFGESCKLMGVKRPAAPLGLITVAAMLPADWTVRLIDCNTSPLGDEDLAWADVVFTGGMLPQQADTLRLIELCRAAGKPVVVGGPDPTSSPHIYERADFRVLGEAESVIDEFIAAWEGGARSGVFTAPKFQADVTRTPVPRFDLLKFEDYLYIGVQYSRGCPFTCEFCDIIELYGRVPRTKTAEQMFVELETLYRMGYRGHLDFVDDNFIGNKKSLRLFLPQLAEWQRAHGYPFEFSTEASINLADDPELLEQMGAANFFGIFVGIESPDPATLVAMRKKQNTRRNIAESIHKIYAAGILVTAGFIVGFDNEKVSMAEAMIEFIEEAAIPVSMVGLLYALPNTQLTRRLEREGRLHPGHDLAPTIGADQCTDGINFDPVRPLRDILMDYKRVLERIYSPAAYAGRIDRLMTLLDRSRQRHALAEGDIRAKLGAMETVHRVVTAIPEARGPLWQTFMNCAKRDTSSARIAVQMIAAYAHLGPFSRKVIDAIDARLAALDDETVIPAATIDATAARHLA”, the protein production result is recorded as “failed”.

In the case of “MDYATNCASLPKWHKVPLLSVCIPAYNRPQGLVAAVRSVVAALPREYHDQVEIVITDDSATRTAVDDLLAPWSGHWHYQHNAQRLGMVANWNTSLAKACGEFILLLHDDDYLLPQGITTILATLSQYGSQFDVFLFGVHLVDSHQRCLRRQIPRRQEWLSPAQALRQLLRHSSLVRFPALIWRRSLLDAVGYFDPTYGEATDLYQWLRFFAQKGVYTVPCATAAYRIHDQALTMGMFQAQTLATLGRIFAAAADLSLLSPAELRHCQCDFFHQFILAGTWRFLRRRQWQRAQAVYQLFDLPEVIALGRSRRWQGLRWLLGSWLWLLQQLSS”, the protein production result was “failed”.
